Assay results: paper PMC11077774

B1: full-length GTP-bound Rab6a/Q72L with N-terminal GST tag [human] / BicD2-CTD (C-terminal cargo-binding domain of human Bicaudal D2, residues 715-804) [human] (parent)
chain 1: YENEKAMVTETMMKLRNELKALKEDAATFSSLRAMFATRCDEYITQLDEMQRQLAAAEDEKKTLNSLLRMAIQQKLALTQRLELLELDHE
chain 2: MSTGGDFGNPLRKFKLVFLGEQSVGKTSLITRFMYDSFDNTYQATIGIDFLSKTMYLEDRTVRLQLWDTAGLERFRSLIPSYIRDSTVAVVVYDITNVNSFQQTTKWIDDVRTERGSDVIIMLVGNKTDLADKRQVSIEEGERKAKELNVMFIETSAKAGYNVKQLFRRVAAALPGMESTQDRSREDMIDIKLEKPQEQPVSEGGCSC

Variants of: B1
Assay: GST pull-down, SDS-PAGE band quantification
Conditions: with BicD2-CTD (C-terminal cargo-binding domain of human Bicaudal D2, residues 715-804) [human]; parent: 1; read off a plot

ratio to parent	Variant
0.01	chain 2 T45A
0.01	chain 2 F38A

The next lines start with the variant.

Variant	ratio to parent
chain 2 W67A	0.09
chain 2 S23A	0.96
chain 2 T69A	0.07
chain 2 Q22A	0.97
